Results from patent US20250276082A1 (INNOLAKE BIOPHARMA HANGZHOU, published 2025).
Positions count from the first letter of the chain named. Blank lines part the entries; values can stand above or below the binder they belong to.

Tests used:
[1] = target: T1, B7H3 on the cell surface (PC9 cells; 293T-B7H3 cells) (UniProt Q5ZPR3 29-534, limits assumed); experiment: FACS, cell surface B7H3 (PC9 cells per FIG. 10)
T1 construct: whole, on cells; both carry B7H3 on the surface; also called Cell Surface B7H3; B7H3 protein in PC9 cells
T1 sequence (looked up): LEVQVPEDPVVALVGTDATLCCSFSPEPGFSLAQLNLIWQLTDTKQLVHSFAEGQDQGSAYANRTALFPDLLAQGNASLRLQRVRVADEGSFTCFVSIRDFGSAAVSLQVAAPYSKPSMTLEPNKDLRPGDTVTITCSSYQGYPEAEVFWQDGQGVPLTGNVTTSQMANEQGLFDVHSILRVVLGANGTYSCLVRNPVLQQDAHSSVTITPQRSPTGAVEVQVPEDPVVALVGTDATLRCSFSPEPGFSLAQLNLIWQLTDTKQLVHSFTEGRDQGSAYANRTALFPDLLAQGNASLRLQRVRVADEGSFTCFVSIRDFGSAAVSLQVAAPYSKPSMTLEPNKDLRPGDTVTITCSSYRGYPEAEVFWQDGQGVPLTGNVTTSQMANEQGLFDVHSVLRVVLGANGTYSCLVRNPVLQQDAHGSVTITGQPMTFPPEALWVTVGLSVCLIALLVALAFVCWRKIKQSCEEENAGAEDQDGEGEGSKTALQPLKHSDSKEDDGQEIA

[2] = target: T2, Human B7H3 extracellular domain and mFc fusion protein (B7H3-ECD-mFc) (human, UniProt Q5ZPR3 29-466); experiment: ELISA, B7H3-mFc protein (table title), humanized IgG1
T2 construct: extracellular domain; also called B7H3-mFc; B7H3-mFc Protein; not shown: mouse Fc (mFc)
T2 sequence (looked up): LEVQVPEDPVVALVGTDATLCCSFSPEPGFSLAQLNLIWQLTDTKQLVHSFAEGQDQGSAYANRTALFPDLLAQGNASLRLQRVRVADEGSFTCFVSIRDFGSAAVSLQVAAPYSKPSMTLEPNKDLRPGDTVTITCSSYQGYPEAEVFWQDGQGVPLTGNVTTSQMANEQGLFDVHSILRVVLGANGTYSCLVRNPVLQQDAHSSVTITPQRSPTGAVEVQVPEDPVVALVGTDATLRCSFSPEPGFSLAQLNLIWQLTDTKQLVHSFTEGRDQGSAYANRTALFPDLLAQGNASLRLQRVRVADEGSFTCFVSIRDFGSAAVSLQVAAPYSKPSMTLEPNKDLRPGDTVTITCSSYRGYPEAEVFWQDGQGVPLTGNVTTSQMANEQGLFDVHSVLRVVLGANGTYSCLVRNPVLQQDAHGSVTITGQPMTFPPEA

EC50 [1]: 0.0113 µg/mL
EC50 [2]: 0.00635 µg/mL
B1: hu7B7 (antibody, IgG1, V domains shown)
VH: EVQLVESGGGLVKPGGSLRLSCAASGFTFSSYAVSWVRQAPGKGLEWVASISGGGIYIYYPDSVKGRFTISRDNAKNSLYLQMNSLRAEDTAVYYCARHGGAGYFDYWGQGTLVTVSS
VL: DSQMTQSPSSLSASVGDRVTITCRGSESVHSYLAWYQQKPGKAPKLLVYNAKTLQSGVPSRFSGSGSGTDFTLTISSLQPEDFATYYCQQHYGSPPWTFGGGTKVEIK
notes: expressed in 293 cells; also called humanized antibody 7B7

EC50 [1]: 0.0143 µg/mL
EC50 [2]: 0.00384 µg/mL
B2: hu15A2 (antibody, IgG1, V domains shown)
VH: QVQLVQSGAEVKKPGASVKVSCKASGYTFTSYDINWVRQATGQGLEWIGWIDPGDGSTKYNEKFKGRATLTANKSISTAYMELSSLRSEDTAVYYCVRRGFDYWGQGTLVTVSS
VL: EIVLTQSPATLSLSPGERATLSCRTSSSVSYLHWFQQKPGQAPRLWIHDTSNLASGFPARFSGSGSGTDYTLTISSLEPEDFAVYYCHQRSSYPWTFGGGTKVEIK
notes: expressed in 293 cells; also called humanized antibody 15A2

EC50 [1]: 0.14 µg/mL
EC50 [2]: 0.0175 µg/mL
B3: hu2A9 (antibody, IgG1, V domains shown)
VH: QVQLVQSGAEVKKPGASVKVSCKTSGYTFTEYIMHWVRQAPGQGLEWIGGINPNSGGTTYNEKFKGRATLTVDKSISTAYMELSRLRSDDTAVYYCARRMPYWYFDVWGQGTMVTVSS
VL: EIVLTQSPATLSLSPGERATLSCSASSSVSYIHWYQQKPGQAPRRWVYDTSKLASGIPARFSGSGSGTDYTLTISSLEPEDFAVYYCQQWVSNPLTFGQGTKLEIK
notes: expressed in 293 cells; also called humanized antibody 2A9; humanized 2A9

EC50 [1]: 0.079 µg/mL
EC50 [2]: 0.0199 µg/mL
B4: hu9C8 (antibody, IgG1, V domains shown)
VH: QVQLVQSGAEVKKPGASVKVSCKASGYTFTEYTIHWVRQAPGQGLEWIGGINPNSGGTTYNLKFKGRATLTVDKSTSTVYMELSSLRSEDTAVYYCARKEGFFTTDYWGQGTLVTVSS
VL: B3 VL with I2T, V29L, V47I, K52N, S55T, V91H, S92Y, L95P, Q99G, L103V
notes: expressed in 293 cells; also called humanized antibody 9C8; humanized 9C8

EC50 [1]: 0.127 µg/mL
EC50 [2]: 0.0406 µg/mL
B5: hu4F11 (antibody, IgG1, V domains shown)
VH: QVQLVQSGAEVKKPGASVKVSCKTSGYTFTEYIMHWVRQAPGQGLEWIGGINPNTGGITYNQKFKDRATLTVDKSISTAYMELSRLRSDDTAVYYCARAGGNFLWYFDVWGQGTMVTVSS
VL: B3 VL with I32M, V47L, V91N
notes: expressed in 293 cells; also called humanized antibody 4F11; humanized 4F11

EC50 [1]: 0.0621 µg/mL
EC50 [2]: 0.0127 µg/mL
B6: hu5B6 (antibody, IgG1, V domains shown)
VH: QVQLVQSGAEVKKPGSSVKVSCKASGYTFITYTIHWVRQAPGQGLEWIGYINPTSDYANFNQKFKDRATLTADKSTSTAYMELSSLRSEDTAVYYCARWGTTVFQFYFDYWGQGTLVTVSS
VL: EIVLTQSPATLSLSPGERATLSCRASQSLSYINWYQQKPGKAPKPWIYATSSLQSGVPSRFSGSASGTDYTLTISSLQPEDFATYYCQHWSSDPPTIGGGTKVEIK
notes: expressed in 293 cells; also called humanized antibody 5B6; humanized 5B6
